{"source": "paper PMC7913699", "about": "(Nucleic Acids Research, 2021)", "binders": {"B1": {"name": "ytfK (dsDNA)", "DNA 1": "GATGTTTAGATAATTCTGAATAA", "DNA 2": "TTATTCAGAATTATCTAAACATC"}, "B2": {"name": "flgA (dsDNA)", "DNA 1": "GTTAATAAGAATATTCCCATCAG", "DNA 2": "CTGATGGGAATATTCTTATTAAC"}, "B3": {"name": "P1flhDC (dsDNA)", "DNA 1": "CGAATTAGGAAAAATCTTAGGCG", "DNA 2": "CGCCTAAGATTTTTCCTAATTCG"}, "B4": {"name": "P1flhDC first GGA to AGA (dsDNA)", "DNA 1": "CGAATTAAGAAAAATCTTAGGCG", "DNA 2": "CGCCTAAGATTTTTCTTAATTCG"}, "B5": {"name": "P1flhDC second AGA to AGG (dsDNA)", "DNA 1": "CGAATTAGGAAAAACCTTAGGCG", "DNA 2": "CGCCTAAGGTTTTTCCTAATTCG"}, "B6": {"name": "nlpD (dsDNA)", "DNA 1": "ACCTTTCGGAATATTCCCATACT", "DNA 2": "AGTATGGGAATATTCCGAAAGGT"}, "B7": {"name": "RcsB from S. Typhimurium, full-length wild-type, bound to phosphomimetic BeF3- (natural protein, UniProt P58663 1-216, looked up)", "chain": "MNNMNVIIADDHPIVLFGIRKSLEQIEWVNVVGEFEDSTALINNLPKLDAHVLITDLSMPGDKYGDGITLIKYIKRHFPSLSIIVLTMNNNPAILSAVLDLDIEGIVLKQGAPTDLPKALAALQKGKKFTPESVSRLLEKISAGGYGDKRLSPKESEVLRLFAEGFLVTEIAKKLNRSIKTISSQKKSAMMKLGVENDIALLNYLSSVTLSPTDKE", "modifications": "phosphomimetic BeF3- bound in the active site (phosphorylatable residue D56)"}, "B8": {"name": "PrprA (dsDNA)", "DNA 1": "CCTATTGAGACGAATCTGATCGG", "DNA 2": "CCGATCAGATTCGTCTCAATAGG"}, "B9": {"name": "osmB (dsDNA)", "DNA 1": "CTCTCTAAGACTTTTCTGACATC", "DNA 2": "GATGTCAGAAAAGTCTTAGAGAG"}}, "key": {"RcsB wild-type [1]": {"biological_target": "T1, RcsB wild-type (Salmonella Typhimurium, UniProt P58663 1-216)", "T1 sequence": "B7 chain", "assay": "EMSA"}, "RcsB-L108A": {"biological_target": "T2, RcsB-L108A (Salmonella Typhimurium, UniProt P58663 1-216, L108A)", "T2 sequence": "B7 chain with L108A", "assay": "EMSA"}, "RcsB wild-type [2]": {"biological_target": "T1, RcsB wild-type", "assay": "EMSA", "remark": "listed apart in the source"}, "RcsB wild-type [3]": {"biological_target": "T1, RcsB wild-type", "assay": "EMSA", "remark": "listed apart in the source"}, "crystal structure": {"biological_target": "the molecule itself", "assay": "crystal structure"}, "RcsB wild-type [4]": {"biological_target": "T1, RcsB wild-type", "assay": "crystal structure"}}, "note": "Changes are numbered by the printed parent chain."}
{"binder": "B1", "values": [{"measurement": "binding result", "setting": "RcsB wild-type [1]", "result": "binds"}]}
{"binder": "B2", "values": [{"measurement": "binding result", "setting": "RcsB wild-type [1]", "result": "binds"}]}
{"binder": "B3", "values": [{"measurement": "binding result", "setting": "RcsB-L108A", "result": "no binding"}]}
{"binder": "B4", "values": [{"measurement": "binding result", "setting": "RcsB wild-type [2]", "result": "binds"}]}
{"binder": "B5", "values": [{"measurement": "binding result", "setting": "RcsB wild-type [3]", "result": "binds"}]}
{"binder": "B6", "values": [{"measurement": "binding result", "setting": "RcsB wild-type [1]", "result": "binds"}]}
{"binder": "B7", "values": [{"measurement": "stoichiometry N", "setting": "crystal structure", "result": 2}]}
{"binder": "B8", "values": [{"measurement": "binding result", "setting": "RcsB wild-type [4]", "result": "binds"}]}
{"binder": "B9", "values": [{"measurement": "binding result", "setting": "RcsB wild-type [1]", "result": "binds"}]}
